From article PMC2288801 come the findings set out here.

Assay [1] deals with laminin from the Engelbreth-Holm-Swarm murine tumor (mouse) (UniProt P19137).
For assay [2], the target named is human plasma fibronectin (human).
The target of assay [3] is collagen type I (UniProt P02452).
In assay [4] the target is human plasma fibronectin (human). The assay can be described thus: ligand affinity chromatography.

Sequence of UniProt P02452 (P02452 162-1218, chain 1 of 2): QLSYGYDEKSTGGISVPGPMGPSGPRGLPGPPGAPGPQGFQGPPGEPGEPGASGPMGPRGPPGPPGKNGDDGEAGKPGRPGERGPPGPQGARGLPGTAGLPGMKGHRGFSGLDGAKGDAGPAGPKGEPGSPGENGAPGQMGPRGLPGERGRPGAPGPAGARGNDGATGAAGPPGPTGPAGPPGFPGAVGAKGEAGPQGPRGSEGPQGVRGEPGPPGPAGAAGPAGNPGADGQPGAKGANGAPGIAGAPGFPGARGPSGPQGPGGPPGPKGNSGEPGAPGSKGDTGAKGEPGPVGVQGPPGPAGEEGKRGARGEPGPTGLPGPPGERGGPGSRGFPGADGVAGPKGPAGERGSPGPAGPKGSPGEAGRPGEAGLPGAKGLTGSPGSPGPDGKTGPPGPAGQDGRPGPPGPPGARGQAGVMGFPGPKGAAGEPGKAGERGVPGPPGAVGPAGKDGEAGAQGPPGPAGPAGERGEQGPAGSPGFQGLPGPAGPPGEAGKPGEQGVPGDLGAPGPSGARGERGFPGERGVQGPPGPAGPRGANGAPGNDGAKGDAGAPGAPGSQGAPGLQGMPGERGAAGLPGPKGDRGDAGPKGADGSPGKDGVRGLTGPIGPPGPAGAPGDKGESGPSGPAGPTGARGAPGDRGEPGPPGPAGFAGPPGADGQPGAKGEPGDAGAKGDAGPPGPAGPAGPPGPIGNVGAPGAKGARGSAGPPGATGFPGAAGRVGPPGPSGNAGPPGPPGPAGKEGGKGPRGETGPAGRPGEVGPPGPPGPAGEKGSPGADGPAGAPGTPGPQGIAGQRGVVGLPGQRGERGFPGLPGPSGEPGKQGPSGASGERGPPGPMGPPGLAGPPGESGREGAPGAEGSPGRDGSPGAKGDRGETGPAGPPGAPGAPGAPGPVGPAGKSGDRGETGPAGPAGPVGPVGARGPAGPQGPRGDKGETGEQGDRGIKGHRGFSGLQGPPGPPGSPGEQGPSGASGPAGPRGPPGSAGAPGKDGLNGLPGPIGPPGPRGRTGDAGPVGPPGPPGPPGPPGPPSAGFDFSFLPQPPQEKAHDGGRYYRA
Sequence of UniProt P02452 (P08123 80-1119, chain 2 of 2, further chain): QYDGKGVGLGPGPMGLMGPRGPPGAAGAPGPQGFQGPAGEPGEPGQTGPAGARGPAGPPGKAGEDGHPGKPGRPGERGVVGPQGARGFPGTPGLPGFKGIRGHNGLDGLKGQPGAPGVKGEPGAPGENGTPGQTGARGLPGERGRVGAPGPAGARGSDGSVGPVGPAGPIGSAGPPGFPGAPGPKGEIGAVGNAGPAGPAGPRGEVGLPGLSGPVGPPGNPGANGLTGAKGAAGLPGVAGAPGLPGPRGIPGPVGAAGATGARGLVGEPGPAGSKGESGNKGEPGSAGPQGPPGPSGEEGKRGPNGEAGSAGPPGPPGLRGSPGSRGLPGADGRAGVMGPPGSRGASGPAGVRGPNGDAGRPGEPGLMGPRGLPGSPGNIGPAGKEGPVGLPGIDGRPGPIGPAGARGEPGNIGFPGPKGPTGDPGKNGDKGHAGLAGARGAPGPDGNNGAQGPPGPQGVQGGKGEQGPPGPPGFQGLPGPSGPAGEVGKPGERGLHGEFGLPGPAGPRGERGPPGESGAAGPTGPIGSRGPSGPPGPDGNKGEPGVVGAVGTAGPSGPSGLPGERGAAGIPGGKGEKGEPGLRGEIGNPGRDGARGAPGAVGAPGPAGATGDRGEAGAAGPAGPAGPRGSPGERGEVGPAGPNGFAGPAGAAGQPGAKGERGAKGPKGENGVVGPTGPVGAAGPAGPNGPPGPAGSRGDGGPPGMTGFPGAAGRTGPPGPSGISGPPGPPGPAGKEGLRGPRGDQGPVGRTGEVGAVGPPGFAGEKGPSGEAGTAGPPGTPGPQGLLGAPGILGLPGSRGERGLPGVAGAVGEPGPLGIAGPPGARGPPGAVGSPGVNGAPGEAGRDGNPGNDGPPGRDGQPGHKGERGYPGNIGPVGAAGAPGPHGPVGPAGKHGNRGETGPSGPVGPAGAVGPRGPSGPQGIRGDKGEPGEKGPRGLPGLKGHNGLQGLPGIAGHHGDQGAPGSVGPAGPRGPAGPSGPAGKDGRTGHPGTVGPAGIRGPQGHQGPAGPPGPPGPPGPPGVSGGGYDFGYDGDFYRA

For the substance “integrin VLA-6 (alpha6 beta1) (from UniProt P05556 21-798) (receptor)”, in assay [1], the inhibition of LOX cell attachment to Lm by anti-VLA-6 mAb (GoH3) is 77% and the inhibition of NCI-H69 cell attachment to Lm by anti-VLA-6 mAb GoH3 stood at 53%. Regarding “integrin VLA-5 (alpha5 beta1) from LOX melanoma cells (from UniProt P05556 21-798) (receptor)”, the inhibition of LOX cell attachment to Fn by anti-VLA-5 mAb (P1D6) in assay [2] amounted to 85%.

In assay [3], “integrin VLA-3 (alpha3 beta1) from NCI-H69 small cell lung carcinoma cells (from UniProt P05556 21-798) (receptor)” yielded a Table II: inhibition of binding by Ca++ relative to Mg++ (ligand Coll-I,IV) of 15% and a Table II: stimulation of binding by Mn++ relative to Mg++ (ligand Coll-I,IV) of 1.4 fold. In assay [4], “integrin VLA-3 (alpha3 beta1) from LOX melanoma cells (from UniProt P05556 21-798) (receptor)” displayed a percent of VLA-3 bound to the column of 100%. “integrin VLA-2 (alpha2 beta1) from LOX melanoma cells (from UniProt P17301;P05556) (receptor)”: in assay [3], the inhibition of LOX cell attachment to Coll type I by anti-VLA-2 mAb (5E8) came out at 76%.
